Data on seven molecules can be found in US6303317A, “Peptide probes and methods for making the same” (The Regents of the University of California, priority 1998, dated 2001).

Where two headings read alike, the source gives them in different places. Where no end group is shown, it is not given here. [ ]: non-standard residue; d: D form. biotin (long spacer arm) = biotin with long spacer arm, attached via N-hydroxysuccinimidyl ester of biotin; Nle = CCCC[C@H](N)C(=O)O A value given as a limit tells only on which side of the number the result lay.

In data set [1] the target is T1, N-terminal APC coiled coil (APC-55) (Homo sapiens, UniProt P25054).
T1 construct: APC-55, a peptide corresponding to amino acids 2-55 of human APC; made in house; host or cells: E. coli BL21 (DE3), pAED4 plasmid
T1 sequence (P25054 2-55): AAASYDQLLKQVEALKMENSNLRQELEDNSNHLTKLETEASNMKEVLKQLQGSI
Briefly: Thermal denaturation followed by circular dichroism at 222 nm (apparent Tm). Format: physicochemical. Conditions: for Apparent Tm: 10 mM phosphate pH 7.0 and 100 mM potassium flouride, midpoint of CD thermal denaturation at 222 nm. The method, then:
Circular dischroism investigations are well known in the art. For example, such an investigation may be performed using a 1 cm or 1 mm cuvette (Helma or Uvonic) on an Aviv CD spectrophotometer (model 60DS or model 62DS) equipped with a thermoelectric controller. The buffer used for all CD experiments except pH titrations is 100 mM KF, 10 mM potassium phosphate (pH 7.0). All peptide concentrations may be determined by tyrosine absorbance at 275.5 nm in 6.0 M GuHCl PH 6.5 (Schwarz/Mann Biotech Ultra-Pure grade) using an Aviv UV/VIS spectrophotometer (model 1 BDS or 14 DS). The molar ellipticity at 222 nm, 5° C., is measured for the homo- and heterodimers. The CD values (i.e., deg cm^2 and dmol^-1) indicate % helicity of the peptides. Thermal melting curves are determined by monitoring the CD signal at 222 nm as a function of temperature. The pH dependence of stability may be measured in 100 mM KF, 10 mM potassium phosphate at various pH values. GuHCl (Schwarz/Mann Biotech Ultra-Pure grade) (e.g., 2M) may be included in the buffer used for monitoring the pH dependence of stability. pH stability is indicated if the same overall shape of the pH dependence curve is obtained in the absence as well as the presence of GuHCl. It is also desirable to determine the reversibility for all thermal melts. The absence of reversibility of a melting curve above a certain pH value indicates chemical modification and/or degradation of the polypeptide. Such modification and/or degradation may be confirmed using HPLC.
Thermal denaturation is used to determine Tm. The term "Tm " refers to the temperature at which the fraction of a polypeptide which is unfolded is equal to the fraction folded (ΔG=0). The Tm is determined by curve fitting a thermal denaturation curve (described supra) to an equation known in the art (see, O'Shea et al (1992) Cell 68:699-708) using a nonlinear least squares-fitting program (e.g., Kaledagraph, Synergy Software). Alternatively, the Tm for each polypeptide may also be determined by taking the first derivative of the CD signal (β) with respect to temperature^-1 (temperature in K) and finding the minimum of this function (Cantor and Schimmel, 1980). Similarly, denaturation induced by additives such as urea or GuHCl can be followed by circular dichroism. These measurements can yield the Cm, i.e., the denaturant concentration where ΔG=0. Linear extrapolation of the transition to zero denaturant can yield the equilibrium constant in aqueous buffer. This can be converted to a free energy of association using the formula ΔG=--RTlnK [Cantor and Schimmel (1980) supra).
CD spectra (180-300 nm) for the APC-55 and anti-APCp1 peptides alone and in combination were recorded in a 1 mm quartz cuvette at 5° C. using an Aviv 62DS circular dichroism spectrophotometer. The concentrations of peptide stocks were determined optically by the method of Gill and vonHippel, Anal. Biochem 182:319-326 (1989). Peptide stocks were diluted in 10 mM KPO4, 100 mM KF, pH 7.0. Thermal denaturations were carried out in steps of 1-3° C. with 2 minutes for equilibration and one minute for data averaging. Thermal transitions were >95% reversible. The results in FIGS. 3 and 4 obtained with the APC-55 alone are shown by open circles (.largecircle.), with the anti-APCp1 alone by squares (.quadrature.), and with an equimolar mixture of APC-55 and anti-APCp1 with closed circles (.circle-solid.).

The target of data set [2] is T2, APC-55 (Homo sapiens, UniProt P25054).
T2 construct: APC-55, a peptide corresponding to amino acids 2-55 of human APC; made in house; host or cells: E. coli BL21 (DE3), pAED4 plasmid
T2 sequence (P25054 2-55): T1 sequence (P25054 2-55)
Briefly: Fluorescence energy transfer titration (dissociation constant of heterodimer). The format is binding. The method, then:
Based on the sensitivity of the fluorescence method used, the dissociation constant of the APC-55/Anti-APCp2 heterodimer was estimated to be less than 10 nM. […] Because the amino-terminal, coiled coil sequence targeted by anti-APCp1 occurs in tumor-associated truncation mutants, the distinct electrophoretic mobilities of the species detected by the antisense peptide distinguish wild-type from tumorigenic APC variants (FIG. 9).

For data set [3], the target named is T3, coumarin-labeled APC-55 (human, coumarin label (site not stated)).
T3 peptide: T1 sequence (P25054 2-55)
The data set is described as follows: fluorescence energy transfer measurements.

Data set [4] deals with GST-APC-H1 (GST fused to the first 55 amino acids of the human APC protein, heptad repeat 1) (human, UniProt P08515 = GST). The data set is described as follows: Western blot of bacterial lysates, 5 nM biotinylated peptide, streptavidin-HRP. The protocol:
(§1) Bacterial lysates containing GST, GST-APC-H1, GST-APC-H1-4 and GST-APC-probe were diluted 1:10 in cell lysates from induced BL21 cells containing no APC sequences and adjusted to a final protein concentration of 0.5 mg/ml in sample buffer. Five micrograms of each sample was electrophoresed on a precast 10% Tricine-SDS polyacrylamide gel (Novex) as described by Schager and von-Jagow (1987). Proteins were transferred to 0.45 micron nitrocellulose for 2 hours at 100 V, 4° C., in transfer buffer (25 mM Tris, 192 mM glycine, 20% methanol, 0.1% SDS).
(§2) The anti-APCp1 peptide was biotinylated by removing the F-moc protecting group from the N-terminus of the peptide on the synthesis resin and incubating the resin with the N-hydroxy-succinimidyl ester of biotin containing a long spacer arm (Pierce, Catalog #21336) in dimethylformamide. The biotinylated anti-APCp1 contains Met (instead of Nrl) as well as an additional Leu8Val mutation and Glu-Asp-Glu (wild-type APC sequence) at the peptide C-terminus. This probe was indistinguishable from anti-APCp1 in native gel experiments and CD experiments (data not shown). Blots were blocked for 1 hour in PNT buffer (10 mM phosphate, pH 8.0, 175 mM NaCl, 0.1% Tween-20) containing 0.5% bovine serum albumin. After blocking, blots were probed for I hour at 42° C. with 5 nM biotinylated antiAPC peptide in PNT buffer containing 1% BSA. […]

Data set [5] addresses GST-APC-H1-4 (GST fused to the N-terminal 373 amino acids of the APC protein, heptad repeats 1-4) (human, UniProt P08515 = GST). Described as above. The method, then:
as §1, §2

Data set [6] is described as follows: thermal denaturation by CD, peptide alone, 8.0 µM.
The nature of data set [7]: thermal denaturation by CD, peptide alone, 20.0 µM.
Data set [8] can be described thus: thermal denaturation by CD, peptide alone, 75.0 µM.
Data set [9] in a line: thermal stability at 20 µM peptide in PBS (pH 7.0), peptide alone.
Data set [10] can be described thus: thermal denaturation by CD at 222 nm, peptide alone (homo-oligomer), 8.0 µM.
Data set [11] is described as follows: thermal denaturation by CD at 222 nm, peptide alone (homo-oligomer), 20.0 µM.
Data set [12] is described as follows: thermal denaturation by CD at 222 nm, peptide alone (homo-oligomer), 75.0 µM.
The target in data set [13] is T4, APC-55, a peptide corresponding to amino acids 2-55 of human APC (human).
T4 peptide: T1 sequence (P25054 2-55)
The data set is described as follows: fluorescence energy transfer titration.

Data set [14] concerns the target T4, APC-55, a peptide corresponding to …. Briefly: thermal denaturation by CD, equimolar mixture, 8.0 µM.
For data set [15] the target is unchanged. The data set is described as follows: thermal denaturation by CD, equimolar mixture, 20.0 µM.
For data set [16] the target is unchanged. The data set is described as follows: thermal denaturation by CD, equimolar mixture, 75.0 µM.
For data set [17] the target is unchanged. Briefly: thermal stability at 20 µM peptide in PBS (pH 7.0), mixture.

As for “APC-55: peptide corresponding to amino acids 2-55 of human APC; target coiled coil; MAAASYDQLLKQVEALKMENSNLRQELEDNSNHLTKLETEASNMKEVLKQLQGSI”, the “Apparent Tm (+/- 1.25° C.)” value came out at 36.3 °C in data set [1] (8.0 μM peptide (Table 9)), 40.0 °C in [1] (20.0 μM peptide (Table 9)) and 46.5 °C in [1] (75.0 μM peptide (Table 9)). Besides, the “Apparent Tm” value in data set [1] (8.0 μM peptide) is 36.3 °C; in [1] (20.0 μM peptide), 40.0 °C; in [1] (75.0 μM peptide), 46.5 °C. Moreover, the “Tm (thermal stability)” value in data set [1] (20 μM peptide concentration in PBS (pH 7.0)) worked out at 40.0 °C.
With “[Nle]AAKGDQLKKEVEALEYENSNLRKKLEDHKKKLTKLKTEISNAKK[Nle]LKQLYASI [anti-APCp2]”, the Kd in [2] (estimated from the sensitivity of the fluorescence method, read-out: dissociation constant of the APC-55/Anti-APCp2 heterodimer) is under 10 nM.
With “MAAKGDQLKKEVEALEYENSNLRKKLEDHKKKLTKLKTEISNAKKMLKQLYASI [anti-APCp1]”, the Kd in data set [2] (fluorescein- and coumarin-labeled anti-APCp1 and APC-55, data not shown, read-out: Kd of the heterodimer (upper limit)) was at most 10 nM.

B1: fluorescein-labeled anti-APCp1 (designed binder)
peptide: MAAKGDQLKKEVEALEYENSNLRKKLEDHKKKLTKLKTEISNAKKMLKQLYASI
modifications: also: fluorescein label (site not given here)
The molecule B1 gave a Kd in data set [3] of at most 10 nM.

B2: biotinylated anti-APCp1 (contains Met instead of Nrl, an additional Leu8Val mutation and Glu-Asp-Glu at the peptide C-terminus) (designed binder)
peptide: {biotin (long spacer arm)}-MAAKGDQVKKEVEALEYENSNLRKKLEDHKKKLTKLKTEISNAKKMLKQLYASIEDE
In the case of B2, the binding result in data set [4] and in [5] was “binds” in each case.

B3: APC-55, a peptide corresponding to amino acids 2-55 of human APC (protein)
chain: T1 sequence (P25054 2-55)
Consider B3, for which the Apparent Tm in data set [6] amounted to 36.3 ° C; in data set [7] it was 40 ° C; in data set [8], 46.5 ° C; in [10], 36.3 ° C; in data set [11] it was 40 ° C; in data set [12], 46.5 ° C. The Tm in data set [9] was found to be 40 ° C.

B4: anti-APCp2 polypeptide probe (designed binder)
peptide: [Nle]AAKGDQLKKEVEALEYENSNLRKKLEDHKKKLTKLKTEISNAKK[Nle]LKQLYASI
B4: the Kd in [13] is under 10 nM. For the same molecule, the “Apparent Tm” value in data set [14] came out at 52.9 ° C; in data set [15] it was 57.5 ° C; in [16], 63.6 ° C. Further, the Tm in data set [17] came out at 57.5 ° C.
